Experimental data published in publication PMC10693918.

Target: TniQ transposition protein of the type I-F3b CAST element Tn6900, His6-tagged
Experiment: cryo-EM structure

stoichiometry N: 2
Substance: TniQ transposition protein of the type I-F3b CAST element Tn6900, His6-tagged (natural protein)
